Reference: patent US20260041733A1, “COMBINATION FOR USE IN OPHTHALMOLOGY” (Dompe' farmaceutici SPA, priority 2022, published 2026)

Legend:
male Sprague-Dawley rats = assay: Eye wiping test (ocular discomfort after ocular administration); assay type: in vivo; conditions: 3.5 μg/ml sesamin with 20 μg/ml rhNGF in Vehicle 2
Protocol: An eye wiping test was carried out to evaluate ocular discomfort induced by ocular administration of rhNGF alone or in combination with Sesamin.
The experiments were performed on male Sprague-Dawley rats (300-320 g), Charles River, Italy) housed in the animal care facility of the Department of Pharmacy, University of Naples. Food and water were available ad libitum.
Rats were divided in 4 experimental groups:
Animals were treated with 20 μg/ml of rhNGF in Vehicle 1 (n=8);
Animals were treated with 20 μg/ml of rhNGF and 3.5 μg/ml sesamin in Vehicle 2 (n=8) All compositions tested were prepared immediately before use from lyophilized placebo or rhNGF reconstituted in a volume of 1 mL of the vehicle.
The treatments described above were administered as eye drops 1 time per day, in a volume of 10 μL. Following the application, the eye wiping test was performed.
Animals were placed on a 50×50 cm table for 10 min habituation period. 10 μL of solutions were applied into the left eye of animals and the number of eye wipes was counted for 30 min.
All data are presented as the mean±SEM. Analysis of data were conducted using GraphPad Prism 8. Statistical analysis was performed by two-way ANOVA followed by Tukey's test for multiple comparisons, as appropriate. Statistical significance was set at *p<0.05.

[1] = system: Dorsal Root Ganglia (DRG) neurons; assay: Levels of autophagy pathway proteins (Western blot) in F11 cells differentiated into DRGs; assay type: cell-based; conditions: 24 h
Protocol: The effect of NGF on autophagy in the presence and absence of sesamin was assessed on Dorsal Root Ganglia (DRG) neurons, involved in the development of NGF sensory side effects, by analysing the impact of the different treatments on the levels of the above proteins involved in autophagy pathway. F11 cells were cultured in Dulbecco's modified Eagle's medium (DMEM, Cat #D6546; Sigma-Aldrich, St. Louis, MO, USA), with 10% fetal bovine serum, 2 mM glutamine (Sigma-Aldrich, USA). Cells were incubated at 37° C. in a humidified atmosphere with 5% CO2. Cells were then seeded at 7000 cells/cm^2 and were maintained in a low serum medium for almost 2 weeks to induce differentiation into DRGs. The complete composition of the low serum medium was: DMEM supplemented 2 mM glutamine, 1% FBS (Sigma-Aldrich, St. Louis, MO, USA). The medium was replaced every 2 days. Immunofluorescence was used to confirm cell differentiation (data not shown). F11 cells maintained in 10% FBS medium were used as control (control, undifferentiated). Morphological and functional analyses were performed after two weeks of treatment with low serum, at complete differentiation of the cells. The undifferentiated control cells underwent the same analysis at 7 days to avoid dramatic cell death due to confluence. The fully differentiated cells were treated with 1 μM rhNGF alone or in combination with 30 nM Sesamin, for 24 h. Control and treated cells were collected and lysed in ice-cold RIPA buffer (Thermo Scientific, USA) with freshly added protease and phosphatase inhibitors. Protein lysates (30 μg) were separated on 4%-12% precast gel using MOPS or MES buffers (Thermo Scientific, USA) depending on the size of the proteins of interest. Then proteins were electroblotted on polyvinyldifluoride membrane (PVDF; Sigma, St Loius, USA) and nonspecific binding sites were blocked in Blocking buffer (Thermo Scientific) for 15 minutes at RT. Afterward, membranes were incubated overnight at 4° C. with the following primary antibodies, diluted in Blocking buffer: rabbit anti-Atg5 1:1000 (Abcam, ab228668, UK), rabbit anti-LC3 1:2000 (Abcam, ab192890, UK), rabbit anti-Beclin 1:2000 (Abcam, ab207612, UK), rabbit anti-P62 1:500 (Abcam, ab91526, UK), rabbit anti-vinculin 1:1000 (Abcam, ab219649, UK) and HRP-conjugated Actin 1:1000 (Cell Signaling, #5125, USA). As secondary antibodies, peroxidase-conjugated anti-rabbit IgG 1:10000 (Abcam, UK) were used. Immunoreactive bands were visualized by ECL (Thermo Scientific, USA), according to the manufacturer's instructions. The relative optical densities of the immunoreactive bands were determined and normalized with respect to those of the anti-Vinculin or anti-Actin (depending on the molecular weight of the analyzed protein and the gel/buffer used), using ImageJ software. The phosphorylated forms were normalized upon the total form.

[2] = topical administration, 200 μg/mL NGF; cited from earlier work
patients = conditions: cited from earlier work
[3] = In-use stability of rhNGF lyophilized formulation (Formulation 6) after reconstitution: oxidized NGF impurity; assay type: physicochemical
Protocol: An in-use stability study of said rhNGF lyophilized formulation (according to Formulation 6) after reconstitution with sesamin-containing reconstitution solvent B or with WFI was carried out as follows.
The tests were performed on said lyophilized formulation reconstituted in solvent B or in WFI, stored at different temperatures (+2/+8° C. or 25° C.-60% Relative Humidity), over 28 days, to verify the possible impurity formation in rhNGF reconstituted liquid formulations, in glass vials.
The impurity was determined as the percentage (w/w) of oxidized NGF in respect of the total NGF comprised in the reconstituted liquid formulation.

[4] = differentiated F11 cells, 1 μM rhNGF alone, vs control (FIG. 1)

Compound | eye discomfort induced by rhNGF (male Sprague-Dawley rats) | autophagy ([1]; 30 nM Sesamin combined with 1 μM rhNGF, vs NGF alone) | levels of the protein in all ocular tissues, included the retina and optic nerve [2] | time of peak increase in ocular tissues after administration [2] [h] | primary side effect reported by patients after topical ocular administration (patients; clinical trials or approved indications, mild and transient) | safety of topical administration on the ocular surface (patients; clinical trials) | NGF oxidation product % ([3]; reconstituted with WFI, +2/+8° C., day 0) [%] | NGF oxidation product % ([3]; reconstituted with WFI, +2/+8° C., day 28) [%] | NGF oxidation product % ([3]; reconstituted with WFI, +25° C./60% Relative Humidity, day 0) [%] | NGF oxidation product % ([3]; reconstituted with WFI, +25° C./60% Relative Humidity, day 28) [%] | NGF oxidation product % ([3]; reconstituted with reconstitution solvent B (sesamin 1.5 μg/mL), +2/+8° C., day 0) [%] | NGF oxidation product % ([3]; reconstituted with reconstitution solvent B (sesamin 1.5 μg/mL), +2/+8° C., day 28) [%] | NGF oxidation product % ([3]; reconstituted with reconstitution solvent B (sesamin 1.5 μg/mL), +25° C./60% Relative Humidity, day 0) [%] | NGF oxidation product % ([3]; reconstituted with reconstitution solvent B (sesamin 1.5 μg/mL), +25° C./60% Relative Humidity, day 28) [%] | level of P62 (autophagy-specific substrate) [1, 4] | levels of Atg5 [1, 4] | levels of Beclin [1, 4] | levels of LC3-I [1, 4] | levels of LC3-II [1, 4]
c1cc2c(cc1[C@H]1OC[C@H]3[C@@H]1CO[C@@H]3c1ccc3c(c1)OCO3)OCO2 [sesamin, 5,5′-[(1S,3aR,4S,6aR)-Tetrahydro-1H,3H-furo[3,4-c]furan-1,4-diyl]bis(2H-1,3-benzodioxole)] | can relieve the eye discomfort | significantly reduced |  |  |  |  |  |  |  |  |  |  |  |  |  |  |  |  | 
rhNGF: recombinant human nerve growth factor, amino acid sequence SEQ ID NO. 1 and/or SEQ ID NO. 2 |  |  | high levels | 6 | eye discomfort | safe | 4.00 | 4.86 | 4.00 | 6.48 | 3.11 | 4.21 | 3.11 | 5.06 | decreased | significantly increased | significantly increased | increased levels | increased levels
